Results on 27 molecules are retold here after patent US20230265179A1 (TWIST BIOSCIENCE, published 2023).

Assay [1] has as its target T1, CD40L (UniProt P29965 113-261, limits assumed).
T1 construct: SPR analyte
T1 sequence (looked up): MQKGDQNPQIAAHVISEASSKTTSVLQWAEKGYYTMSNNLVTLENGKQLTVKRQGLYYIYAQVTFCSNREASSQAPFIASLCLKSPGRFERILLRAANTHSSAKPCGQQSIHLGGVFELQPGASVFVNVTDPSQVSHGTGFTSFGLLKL
The experiment in a line: SPR (Carterra LSA), antibody amine-coupled, 1:1 model.
Experimental: SPR experiments were performed on a Carterra LSA SPR biosensor equipped with a HC30M chip at 25° C. in HBS-TE. Antibodies were diluted to 10 μg/mL and amine-coupled to the sensor chip by EDC/NHS activation, followed by ethanolamine HCl quenching. Increasing concentrations of analyte were flowed over the sensor chip in HBS-TE with 0.5 mg/mL BSA with 5-minute association and 15-minute dissociation. Following each injection cycle the surface was regenerated with 2× 30-second injections of IgG elution buffer (Thermo). Data were analyzed in Carterra's Kinetics Tool software with 1:1 binding model.

For assay [2], the target named is T2, CD40L over-expressed on Expi293 cells (UniProt P29965 1-261, limits assumed).
T2 construct: whole, on cells; also called cytokine over-expressing Expi293 cells
T2 sequence (looked up): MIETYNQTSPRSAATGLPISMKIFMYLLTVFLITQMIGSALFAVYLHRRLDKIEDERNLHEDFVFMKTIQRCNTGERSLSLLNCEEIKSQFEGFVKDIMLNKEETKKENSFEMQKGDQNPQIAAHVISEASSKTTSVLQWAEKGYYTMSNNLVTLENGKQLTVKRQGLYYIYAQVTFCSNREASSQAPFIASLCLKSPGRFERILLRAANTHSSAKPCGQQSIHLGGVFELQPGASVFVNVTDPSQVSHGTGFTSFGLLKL
The experiment in a line: flow cytometry, 100 nM antibody, CD40L-Expi293 vs parent Expi293 cells.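 Note: ratio is the mean fluorescence intensity on CD40L-overexpressing Expi293 cells divided by the mean fluorescence intensity on parental Expi293 cells.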 In general terms: In flow cytometry, cells or beads pass a laser one at a time.
Experimental: All incubations and washes were in buffer containing PBS+1% BSA. MFI Ratio is defined by the mean fluorescence intensity (MFI) of the cytokine over-expressing Expi293 cell over the Expi293 parent cell. […] EC50 was calculated in GraphPad Prism.

Changes are numbered by the printed parent chain. Bounds are passed on as bounds.

B1: CD40L-22 (VHH)
VHH: EVQLVESGGGLVQPGGSLRLSCAASGVTLDDYAMGWFRQAPGKERELVAAITNGGITTHYADSVKGRFTISADNSKNTAYLQMNSLKPEDTAVYYCAADVGPTVKWGQGTLVTVSS
As usually defined, the Kd is a measure of binding affinity in units of concentration. The koff is the first-order rate constant of dissociation. A higher koff goes with fast dissociation. The term kon denotes a measure of how fast the partners come together. Lower therefore signals slow association. Consider B1, for which, in assay [1], the Kd was found to be 1.02 nM, the koff stood at 0.000394 s⁻¹ and the kon turned out to be 387000 M⁻¹ s⁻¹. In assay [2], the “100 nM FACS (MFI Ratio)” value came out at 47.6 ratio.

B2: CD40L-13 (VHH)
VHH: EVQLVESGGGLVQPGGSLRLSCAASGFTFGNYDMGWFRQAPGKEREFVAAIDASGGFTEYADSVKGRFTISADNSKNTAYLQMNSLKPEDTAVYYCASDHYDTDTKSDVYNWGQGTLVTVSS
In assay [1], B2 yielded a dissociation constant Kd of at most 0.0113 nM, a koff of at most 1e-05 s⁻¹ and a kon of 888000 M⁻¹ s⁻¹. Further, the “100 nM FACS (MFI Ratio)” value in assay [2] worked out at 37.3 ratio.

B3: CD40L-50 (VHH)
VHH: B2 VHH with G30D, N31D, Y32S, D52S, A53M, G56E, F57D, T58A, E59A
Take B3: in assay [1], the equilibrium dissociation constant (Kd) was found to be 0.7 nM, the koff was 0.000577 s⁻¹ and the kon turned out to be 824000 M⁻¹ s⁻¹. Further, the “100 nM FACS (MFI Ratio)” value in assay [2] was 131 ratio.

B4: CD40L-14 (VHH)
VHH: B2 VHH with G30S, N31T, I51V, D52S, A53Q, G56L, F57L, E59F
In assay [1], B4 registered a Kd of 1.78 nM, a koff of 0.000538 s⁻¹ and a kon of 303000 M⁻¹ s⁻¹. Besides, the “100 nM FACS (MFI Ratio)” value in assay [2] is 22.5 ratio.

B5: CD40L-8 (VHH)
VHH: B2 VHH with F27R, G30S, N31R, Y32S, A50V, D52S, A53W, G56A, F57Y
In assay [1], B5 returned a Kd of 1.37 nM, a koff of 0.0004 s⁻¹ and a kon of 291000 M⁻¹ s⁻¹. Also, in assay [2], the “100 nM FACS (MFI Ratio)” value is 80.9 ratio.

B6: CD40L-40 (VHH)
VHH: B2 VHH with G30D, N31D, F47L, D52S, S54T, G56D, F57D, E59Y
In assay [1], B6 had a Kd of 0.806 nM, a koff of 0.000319 s⁻¹ and a kon of 396000 M⁻¹ s⁻¹. The “100 nM FACS (MFI Ratio)” value in assay [2] was found to be 74.2 ratio.

B7: CD40L-43 (VHH)
VHH: B2 VHH with T28S, F29L, G30D, N31D, A50V, D52S, A53W, G56A, F57Y
Take B7: in assay [1], the affinity, expressed as Kd, was 0.251 nM; the koff was 0.000173 s⁻¹; the kon came to 690000 M⁻¹ s⁻¹. In addition, in assay [2], the “100 nM FACS (MFI Ratio)” value came out at 83.8 ratio.

B8: CD40L-32 (VHH)
VHH: B2 VHH with T28G, N31S, D52Y, A53S, S54D, F57S, T58A, E59Y
In assay [1], B8 came in with a Kd of 0.272 nM, a koff of 6.18e-05 s⁻¹ and an association rate constant (kon) of 227000 M⁻¹ s⁻¹. Further, the “100 nM FACS (MFI Ratio)” value in assay [2] is 152 ratio.

B9: CD40L-31 (VHH)
VHH: EVQLVESGGGLVQPGGSLRLSCAASGFTFDDSDMGWFRQAPGKEREFVAVVNWSGSSESYADSVKGRFTISADNSKNTAYLQMNSLKPEDTAVYYCASDHYDTDTKSDVYNWGQGTLVTVSS
In assay [1], B9 gave a Kd of 6.5 nM, a koff of 0.000581 s⁻¹ and a kon of 89300 M⁻¹ s⁻¹. For the same molecule, the “100 nM FACS (MFI Ratio)” value in assay [2] is 18.5 ratio.

B10: CD40L-5 (VHH)
VHH: B2 VHH with F27L, T28L, G30S, N31S
In assay [1], B10 yielded a dissociation constant (Kd) of 0.295 nM, a koff of 0.000196 s⁻¹ and a kon of 662000 M⁻¹ s⁻¹. For the same molecule, the “100 nM FACS (MFI Ratio)” value in assay [2] was 72.9 ratio.

B11: CD40L-11 (VHH)
VHH: EVQLVESGGGLVQPGGSLRLSCAASGRTWNDLDMGWFRQAPGKEREFVAAISMSGEDAAYADSVKGRFTISADNSKNTAYLQMNSLKPEDTAVYYCASDHYDTDTKSDVYNWGQGTLVTVSS
In assay [1], B11 showed a Kd of 0.882 nM, a koff of 0.000574 s⁻¹ and a kon of 651000 M⁻¹ s⁻¹. Moreover, in assay [2], the “100 nM FACS (MFI Ratio)” value was 84 ratio.

B12: CD40L-54 (VHH)
VHH: B9 VHH with S32Y, V50A, V51I, N52A, S54T, S56T, S57N, E58S, S59Y
Consider B12, for which, in assay [1], the Kd worked out at 0.758 nM, the koff worked out at 0.000399 s⁻¹ and the kon worked out at 526000 M⁻¹ s⁻¹. Further, the “100 nM FACS (MFI Ratio)” value in assay [2] came out at 100 ratio.

B13: CD40L-56 (VHH)
VHH: B9 VHH with F29L, D31H, S32Y, V51I, S56A, S57Y, E58T, S59E
In assay [1], B13 yielded a Kd of 0.422 nM, a koff of 0.000208 s⁻¹ and a kon of 492000 M⁻¹ s⁻¹. In addition, the “100 nM FACS (MFI Ratio)” value in assay [2] came to 68.4 ratio.

B14: CD40L-16 (VHH)
VHH: EVQLVESGGGLVQPGGSLRLSCAASGRIFSTYFMGWFRQAPGKEREWISTVYSNGHTYYADSVKGRFTISADNSKNTAYLQMNSLKPEDTAVYYCAAWLNGGNRWGQGTLVTVSS
In assay [1], B14 returned a Kd of 7.93 nM, a koff of 0.000278 s⁻¹ and a kon of 35100 M⁻¹ s⁻¹. Besides, the “100 nM FACS (MFI Ratio)” value in assay [2] was 47.8 ratio.

B15: CD40L-52 (VHH)
VHH: B14 VHH with I48V, V51I, H56T, T57P, Y58A
With B15, in assay [1], the affinity, expressed as Kd, was 7.56 nM; the koff was 0.000453 s⁻¹; the kon came out at 59900 M⁻¹ s⁻¹. In addition, the “100 nM FACS (MFI Ratio)” value in assay [2] is 91.9 ratio.

B16: CD40L-42 (VHH)
VHH: EVQLVESGGGLVQPGGSLRLSCAASGSMSSINAMGWFRQAPGKEREFVAVIYSSDGSTLYADSVKGRFTISADNSKNTAYLQMNSLKPEDTAVYYCAAEPYGSGSSLISEYDWGQGTLVTVSS
On to B16, for which, in assay [1], the Kd turned out to be 2.46 nM, the off-rate constant (koff) is 0.000639 s⁻¹ and the kon amounted to 260000 M⁻¹ s⁻¹. In assay [2], the “100 nM FACS (MFI Ratio)” value was 40 ratio.

B17: CD40L-17 (VHH)
VHH: B16 VHH with S27R, M28T, S30N, N32Y, I108M
In assay [1], B17 yielded a Kd of 2.32 nM, a koff of 0.000363 s⁻¹ and a kon of 157000 M⁻¹ s⁻¹. In assay [2], the “100 nM FACS (MFI Ratio)” value turned out to be 45.6 ratio.

B18: CD40L-6 (VHH)
VHH: B16 VHH with M28I, S29D, S30N, N32H, V48I, S53W, S54R, T58S
With B18, in assay [1], the Kd worked out at 0.319 nM, the koff was 8.01e-05 s⁻¹ and the kon turned out to be 251000 M⁻¹ s⁻¹. Moreover, the “100 nM FACS (MFI Ratio)” value in assay [2] was 67.4 ratio.

B19: CD40L-9 (VHH)
VHH: B16 VHH with M28G, S29L
In the case of B19, in assay [1], the Kd stood at 1.13 nM, the koff is 0.000284 s⁻¹ and the kon is 251000 M⁻¹ s⁻¹. In addition, the “100 nM FACS (MFI Ratio)” value in assay [2] is 21.1 ratio.

B20: CD40L-18 (VHH)
VHH: B16 VHH with M28I, I31V, V48I, S53W, S54R, T58S
Regarding B20, in assay [1], the Kd was determined as 1.77 nM, the dissociation rate constant (koff) stood at 0.000391 s⁻¹ and the kon was 221000 M⁻¹ s⁻¹. In assay [2], the “100 nM FACS (MFI Ratio)” value was 29.8 ratio.

B21: CD40L-12 (VHH)
VHH: EVQLVESGGGLVQPGGSLRLSCAASGRSFSTYTMGWFRQAPGKEREFVAVIYTSDGANLYADSVKGRFTISADNSKNTAYLQMNSLKPEDTAVYYCAAETYGSGSSLMSEYDWGQGTLVTVSS
Take B21: in assay [1], binding was put at a Kd of 1.03 nM, the koff is 0.000266 s⁻¹ and the kon was determined as 257000 M⁻¹ s⁻¹. For the same molecule, the “100 nM FACS (MFI Ratio)” value in assay [2] is 46.2 ratio.

B22: CD40L-30 (VHH)
VHH: B16 VHH with S27N, M28I, S29F, S30R
Regarding B22, in assay [1], the Kd was 4.04 nM, the koff is 0.000633 s⁻¹ and the on-rate constant (kon) worked out at 157000 M⁻¹ s⁻¹. The “100 nM FACS (MFI Ratio)” value in assay [2] amounted to 24.3 ratio.

B23: CD40L-27 (VHH)
VHH: B16 VHH with M28I, N32H, V48I, S53W, S54R, T58S, I108M
B23: in assay [1], the Kd was 0.749 nM, the off-rate (koff) was 0.000155 s⁻¹ and the kon was 207000 M⁻¹ s⁻¹. For the same molecule, the “100 nM FACS (MFI Ratio)” value in assay [2] was 44.9 ratio.

B24: CD40L-19 (VHH)
VHH: EVQLVESGGGLVQPGGSLRLSCAASGTITSAVFMGWFRQAPGKEREWVATISSHGLPVYADSVKGRFTISADNSKNTAYLQMNSLKPEDTAVYYCAIDEGMDYDGNFYDWGQGTLVTVSS
In assay [1], B24 came in with a Kd of 6.72 nM, a koff of 0.00119 s⁻¹ and a kon of 177000 M⁻¹ s⁻¹. Moreover, the “100 nM FACS (MFI Ratio)” value in assay [2] came out at 1.9 ratio.

B25: CD40L-20 (VHH)
VHH: EVQLVESGGGLVQPGGSLRLSCAASGVITLDSNAMGWFRQAPGKEREFVAAITWDGGYTRYADSVKGRFTISADNSKNTAYLQMNSLKPEDTAVYYCAAEATFPTWNRGSEADYDWGQGTLVTVSS
In assay [1], B25 returned a Kd of 1.25 nM, a koff of 0.000271 s⁻¹ and a kon of 217000 M⁻¹ s⁻¹. Moreover, the “100 nM FACS (MFI Ratio)” value in assay [2] came to 24.6 ratio.

B26: CD40L-21 (VHH)
VHH: EVQLVESGGGLVQPGGSLRLSCAASGRIFSTYFMGWFRQAPGKEREFVAASYTGGSGGSTVYADSVKGRFTISADNSKNTAYLQMNSLKPEDTAVYYCAAWLNGGNRWGQGTLVTVSS
In assay [1], B26 showed a Kd of 53.8 nM, a koff of 0.00083 s⁻¹ and a kon of 15400 M⁻¹ s⁻¹. Further, the “100 nM FACS (MFI Ratio)” value in assay [2] worked out at 99.2 ratio.

B27: CD40L-15 (VHH)
VHH: EVQLVESGGGLVQPGGSLRLSCAASGFTFDDYDMGWFRQAPGKERELVASITSGGSTNYADSVKGRFTISADNSKNTAYLQMNSLKPEDTAVYYCAIPHGIDLYTFDWGQGTLVTVSS
In assay [1], B27 gave a dissociation constant (Kd) of 1.29 nM, a koff of 0.000384 s⁻¹ and a kon of 299000 M⁻¹ s⁻¹. Besides, the “100 nM FACS (MFI Ratio)” value in assay [2] worked out at 29 ratio.
